Measured values taken from article PMC8838988.

Biological target: PiCDPK1, full-length 6X N-terminal His-fusion protein (Petunia inflata)
Sequence (main, as listed by the source): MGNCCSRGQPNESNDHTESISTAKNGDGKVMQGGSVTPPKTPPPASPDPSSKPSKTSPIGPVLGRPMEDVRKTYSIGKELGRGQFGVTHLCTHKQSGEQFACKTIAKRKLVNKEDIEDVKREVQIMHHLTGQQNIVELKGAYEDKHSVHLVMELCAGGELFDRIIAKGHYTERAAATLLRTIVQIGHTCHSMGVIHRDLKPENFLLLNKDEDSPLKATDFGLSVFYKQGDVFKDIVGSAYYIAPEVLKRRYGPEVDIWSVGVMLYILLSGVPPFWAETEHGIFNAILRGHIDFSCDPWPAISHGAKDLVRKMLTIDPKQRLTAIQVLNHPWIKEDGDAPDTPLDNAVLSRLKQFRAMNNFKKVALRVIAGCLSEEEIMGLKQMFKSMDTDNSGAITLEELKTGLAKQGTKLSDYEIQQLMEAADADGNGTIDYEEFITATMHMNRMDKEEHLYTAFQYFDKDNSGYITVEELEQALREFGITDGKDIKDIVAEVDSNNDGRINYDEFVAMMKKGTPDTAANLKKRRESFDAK

Km of the phosphorylation of PiRhoGDI1 by PiCDPK1 (Michaelis-Menten conditions): 2.2 µM
Vmax of the phosphorylation of PiRhoGDI1 by PiCDPK1 (Michaelis-Menten conditions): 1920 pmol/min/mg
Substance: PiRhoGDI1, full-length 6X N-terminal His-fusion protein (natural protein)
